For two substances, Kd results are on record in article doi:10.1101/2022.06.24.497440.

The target in test [1] is CaV1.2 IQ motif peptide F1658A (UniProt P15381). Nature of the test: ITC.
Test [2] concerns the target CaV1.2 IQ motif peptide Y1649A (UniProt P15381). Kind of test: ITC. On the technique in general: Isothermal titration calorimetry measures the heat released or taken up as one component is titrated into another.
In test [3] the target is CaV1.2 IQ motif peptide F1658D (UniProt P15381). Nature of the test: ITC.
In test [4] the target is CaV1.2 IQ motif peptide I1654A (UniProt P15381). Nature of the test: ITC.
In test [5] the target is CaV1.2 IQ motif peptide Y1657D (UniProt P15381). Nature of the test: ITC.
For test [6], the target named is fluorescently labeled CaV1.2 IQ peptide, wildtype (UniProt P15381). Nature of the test: fluorescence polarisation. (In fluorescence polarisation assays a small probe gives low polarisation when free and higher when bound to something large.)
The target of test [7] is fluorescently labeled CaV1.2 IQ peptide K1662E (UniProt P15381). Kind of test: fluorescence polarisation.
Test [8] deals with fluorescently labeled CaV1.2 IQ peptide Y1657D (UniProt P15381). Kind of test: fluorescence polarisation.

For orientation: Kd means the concentration at which binding is half-saturated. Low readings indicate higher affinity, high ones lower affinity. For “calmodulin mutant D21A/D23A/D25A/E32Q/D57A/D59A/N61A/E68Q (CaM12’), Ca2+ bound at EF3 and EF4 (from UniProt P0DP23 1-149) (natural protein)”, the Kd in test [1] was 0.032 µM; in test [2], 0.026 µM; in test [3], 4 µM; in test [4] it was 0.06 µM; in test [5], 8 µM; in test [6] it was below 0.1 µM. The same substance yielded a Kd in test [7] below 0.1 µM.
Turning to “calmodulin, wild type, Ca2+-free (apoCaM) (from UniProt P0DP23 1-149) (natural protein)”, in test [8], the Kd worked out at 60 µM.
